The nanobody polyreactivity screen of Harvey et al. (2022)

Experiment: yeast display, Sf9 membrane polyspecificity reagent, FACS + sequencing; frameworks hold sequencing errors
How it was run: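 Nanobodies came from a synthetic yeast display library in Saccharomyces cerevisiae BJ5465, induced with galactose for 36–48 hours and stained for 1 hour at 4 °C with 10% biotinylated, detergent-solubilized Sf9 membrane reagent. Cells were enriched on streptavidin microbeads and then FACS-sorted, with low and high (top ~1%) gates set on anti-HA fluorescence for expression and streptavidin fluorescence for reagent binding. Each polyreactivity label reflects the gate a clone came from. Genes were amplified by colony PCR, sequenced by MiSeq 2 × 250 and filtered by CDR length.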

Sequence | polyreactivity (PSR sort gate)
QVQLQESGGGLEQAGGSLRLSCAASGYIFPTAIKGWYRQAPGKERKLVAAINPGSNTYYADSVKGRFTFSRDNANNSVYLQMNSLKPEDAAVYYCGVSIWLVGTLDYWGQGTQVTVSS | low polyreactivity
QVQLVESGGGLVQARGSLRLSCAASLLTFGKNDMGWYRQAPGKEREFVAAITSRGGYTYYADSVKGRFTISRDNAKNTVYSQMNSLKPEDTAVYYCNREYKRPSQRTEHSYWGQGTQVTVSS | low polyreactivity
QVQLVESGGGIVQAGGSLRLSCAASGITFPFYTMGWYRQAPGKERELVADISSRGTSTYYADSVKGRFTISRDNAKYTVYLQMNSLNPEDTAVYYCKARATPQRAYDSWGQGTLVTVSS | high polyreactivity
QVQLVESGGGLVQAGGSLRLSCAASGSTFSWNTMGWYRQAPGKERELVAAINSGGSTYYADSVKGRFTISRDNAKNTVYLQMNSLKPEDTAVYYCAARTNYYGRFDYWGQGTQVTVSS | low polyreactivity
QVQLVESGGGLVQAGGSLRLSCAASGSTFEANAMGWYRQAPGKERELVAVITWTGGSTYYADSVKGRFTISRDNAKNTVYLQMNSLKPEDTAVDYCAADGVVPGRFFWPAHEYDYWGQGTQVTVSS | low polyreactivity
QVQLVESGGGLVQAGGSLRLSCAASGRIFDYYAMGWYRQAPGNERELVAAINSGGSTYYADSVKGRFTISRDNAKNTVSLQMNSLKPEDTAVYYCNALRKSLRGGDYWGQGTQVTVSS | high polyreactivity
QVQLVESGGALDQAGGSLRLTCAASGFIFGVNAKGWYRKAPGKERELVAAITARSGSTYYADSVKGRFTISRDNAKNTVYLQMNSLKPEDTAVYYWATPVYRSTYEYDYWGQGTQVTVSS | low polyreactivity
QVQLVESGGGLVQAGGSLRLSCAASGSTFPGNAMGWYRQAPGKERELVAAINWSGDSTYYADSVKGRFTISRDNAKNTVYLQMNSLKPEDTAVYYCAAYGVGYYYWGQGTQVTVSS | low polyreactivity
QVHLVESGGGLVQAGGSLRLSCAASGIIFYDNTMGWYRQAPGTERELVASITWRGGSTYYADSVKGRFTISRDNAKNTVYLQMNSLKPEDTAVYYCNADSSDDYDYWGQGTQVTVSS | low polyreactivity
QVQLVESVLGLVQAGGSLRFSCAASGSTIVRYAMVWYRPAPGKERELVAAISSSGATTYYADSVKGRFTISRDNAKNTVYLQMNSLKPEYTAVYYCDKYCRATRGLDNYWGQGTQVTVSS | high polyreactivity
QVQLVESGGGLVQAGGTLRLSCAASGFIFAGYAMAWYRHAPGKERELVAASSWDGGSTYFADSVKGRFTISRDNAKHTVYLQMNSLIPEDTAGYYCAAKYFRHGPATYDYWGQGTQVTVSS | low polyreactivity
QVQLHESGGGLVQAGGGLRLSCAASGSISSTGFMGWYRQAPGKEREPVAAIAQGTTTYYAESVKGRFTISRDNAINTVYLQMNSLRPEDTAVYYCAVFTDNRVAFLYWGQGTQVTVRS | low polyreactivity
QVQLVESGGGLVQAGGSLRLSCAASGRTFRTYAMGWYRQAPGKERELVAITTSGGSTYYADSVKGRFTISRDNAKNTVYLQMNSLKPEDTAVYYGAAQWRSYYDQYGYDYWGQGTQVTVSS | low polyreactivity
QVQLVESGGGLVQAGGSLRLSCAASGSILGLYAMGWYRQAPGKERELVAAITYRGGRTDYADSVKGRFTISRDNAKNTVYLQMNSLKPEDTAVYYCAAGYLPRPRYSTSYLYYYWGQGTQVTVSS | high polyreactivity
QVQLVESGGGLVQAGGSLRLSCAASGSIFGYYAMGWYRQAPGKERELVAAITTRGGRTYYADSVKGRFTISRDNAKNTVYLQMNSLNPEDTAVYYCAARTGRGRYDYWGQGTQVTVSS | high polyreactivity
QVQLVESGGGLVQAGGSLRLSCAASGFTFRGNAMGWYRQAPGKERELVAAITSSDDSTYYADSVKGRFTISRDNAKNTVYLQMNSLKPEDTAVYYCAVYFFSFWGQGTQVTVSS | low polyreactivity
QVQLVESGGGLVQAGGSLRLSCAASGFIFERYAMGWYRKAPGKERELVAGIYSGGSTYYADSVKGRFTISRDNAKNTVYLQMNSLKPEDTAVYYCAAFRRQHIIYNYWGQGTQVTVSS | high polyreactivity
QVQLVESGGGLVQAGGSHRLSCAASGGIFYFNAMGWYRQAPGKERELVASITWSGGNTYYADSVKGRFTISRDNAKNTVYLQMNSLKPEDTAVYYCAADTQEYRPTYDYWGQGTQVTVSS | low polyreactivity
QVQLVESGGGLVQAGGSLRLSCAASGRIFVRYAMGWYRPAPGKERELVATISSRGGSTYYADSVKGRFTISRDNAKNTVYLQMTSLKPEDTAVYYWAAYVYPWGRDYWGQGTQVTVSS | high polyreactivity
QVQLVESGGGLVQAGGSLRLSCAASGIIFGRYAMGWYRQAPGKERELVAAISGSGGITYYADSVKGRFTISRDNAKNTVYLQMNSLKPEDTAVYYCATRKYLTYNYWGQGTQVTVSS | high polyreactivity
QVQLVESGGGLVQAGGSLSLSCAASGSIFFNNAMGWYRQAPGKERELVAAITWRDGSTNYADSVKGRFTISRDIAKNTVYLQMNSLKPEDTAVYYCNKVKEFGNVWFLPKYNYWGQGTQVTVSS | low polyreactivity
QVQLVESGGGLVQAGGSLRLSCAASGSTLVYYDMGWYRKAPGKERELVATITGTDSTYYADSVKGRFTISRDNAKNTVYLQMNSLKPEDTADCAADRAASRPDYDYWGQGTQVTVSS | low polyreactivity

Sequence | polyreactivity (PSR sort gate)
QVQLVESGGGLVQAGGSLRLSCAASASTFVYNAKGWYRQAPGKERELVASITRSGSSTYYADSVKGRFTISRDNAKNTVYLQMNSLKPEDTAVYYCDVRYSVLSNYRYYYWGQGTQVTVSS | low polyreactivity
QVQLVESGGGLVQAGGSLRLSCAASGSIFKTNAMGWYRQAPGKERELVAAITGSGGSTYYADSVKGRFTISRDNAKNTVYLQMNSLKPEDTAVYYCAKRSYRPILRWSYDYWGQGTQVTVSS | low polyreactivity
QVQLVESGGGLVQAGGSLRLSCAASGLTFRYYAMGWYRQEPGKERELVATITRAGRTNYADSVKGRFTISRDNAKNTVYLQMNSLKPEDTAVYYCNAKQSGKYPRVVGYDYWGQGTQVTVSS | high polyreactivity
QFQLVESGGGLVQARGSLRLSCAPSGRTFGIYTMGWYRPAPGKERELVAAISAGGGRTSYADSVKGRFTISRDHAKNTVYLQMMSLKPEDTAVYYCAARVYQYRNEDTTRRAGRSYWGQGTQVTVSS | high polyreactivity
QVQLVESGGGLVQAGGSLRLSCAASGLIFTVNAMGWYRQAPGKERELVAAISQSGGSTYYADSVKGRFTISRDNAKNTVYLQMNSLKPEDTAVYYCARGSWRHFRLYGFDYWGQGTQLTVSS | low polyreactivity
QVQLVESWGGLVQAGGSLRLSCAASGHTFREKAMGWYRQAPGKERELLAAITSSGRTYYADSVKGRFTISRDNAKNTVYLQMNRQKPEDTAVYYCAADYWYVYPRYNPGDYWGQGSQVTVSS | high polyreactivity
QVQLVESGGGLVQAGGSLRISCAASGSIFQNYAMGGYRQAPGKERELVAAINDDSTYYADSVKGRFTISRDNAKNPVDLQMNSLKPEDTAVYYGNKEFLRRQRVTFWHLGGYWGQGTQVTVSS | low polyreactivity
QVQLVESGGGLVQAGGSLRLSCAASGSIFYTYAMGWYRQAPGKERELVAAISGTGTSTYYADSVKGRFTISRDHAKNTVYLQMNSLKPEDTAVYFCATHGGAAWGRYYWYYGYWGQGTQVTVSS | low polyreactivity
QVQLVESGGGLVQAGGSLRLSCAASGRIYRYYAMGWYRQAPGKEREFVAAISYRGASTFYADSVKGRFTISRDNAKNTVYLQMNSLKPEDTAVYYCATDTRIRYQGNPYDYWGQGTQVTVSS | high polyreactivity
QVQLVESGGGLVQAGGSLRLSCADSGITFAPYAMGWSRQAPGKERELVATITWSGGSTYYADSVKGRFTISRDNAKNTVYLQMNSLKPEDTAVYYCAAYNDTVPSAAHIYESWGQGTQVTVSS | low polyreactivity
QVQLVESGGGLVQAGGSLRLSCAASGRTFYKNTMGWYRQAPGKERELVAPITRRGGTPYYADSVKGRFTISRDNAKNTVYLQMNSLQPEDTAVYYCAVLTWYFLLQYGYYQEGDYWGQGTQVTVSS | low polyreactivity
QVQLVESGGGLVQAGGRLRLSCAASGFTFRYYAMGWSRQAPGKERELVAGISYRGTSTYYADSVKGRFTISRDNAKNTVYLQMNSLKPEDTAVYYCADEVRYDRHDYWGQGTQVTVSS | high polyreactivity
QVQLVESGGGLVQARGSLRLSCAASGFTFPSYAMGWYRQAPGKERELVARITWIGGRTYYADSVKGRFTISRDNAKNTVYLQMNSLKPEDSAVYYCAARIGGGPVKYDYWGQGTQVTVSS | high polyreactivity
QVQLVESGGGIVQAGGILRLSCAASGRISVFNDMGWYRQAPGKERELVAAITSGGSTKYADSVKGRFTISRDNAKNTVYLQMNSLKPEDTAVYYCASLYQFHGKIWDGDYWGQGTQVNVSS | low polyreactivity
QVQLVESGGGLVQAGGSLRLSCAASGSIISAYAMGWYRQAPGKVREFVASITWSGGSTYYADSVKGRFTISRDNAKNTVYLQMNSLKPEDTAVYDCAAVYVTWYNNYEYWGQGTQVTVSS | high polyreactivity
QVQLVESGGGLVQAGGSLRLSCAASGSTFFYYAMGWYRQAPGKERELVAAISQSSASTYYADSVKGRFTISRDNAKNTIYLQMNSLKPEDTAVYYCAADYWSVPYIYEYWGQGTQVTVSS | high polyreactivity
QVQLVESGGGLVQAGGSLRLSCAASGIIFRWYVMGWYRQAPGKERELVAAISYRRGSTNYADSVKGRFTISRDNAKNTVYLQMNSLKPEDTAVYYCNRVPYPGSRRKYDYWGQGTQVTVSS | high polyreactivity
QVQLVESGGGLVQAGGSLRLSCAASGSIFGYYTMGWYRQAPGKERELVAAITRSGATTFYADSVKGRFTISRDKAKNTVYLQMNSLKPEDTAVYYCAAQARGYTRGYWGQGTQVTVSS | high polyreactivity
QVQLEESGGGLVQAGGSLRLSCAASGSTLIYNAMGWYRPAPGKERELVAAISASGTRTYYADSVKGRFTISRDNAKNTVYLQMNSLKPEDTAVYYCNALRRAPRAEYYYWGQGTQVTVSS | high polyreactivity
QVQLVESGGGLVQAGGSLRLTCAASGRTFYFYTMGWYRQAPGKERELVATITWRGGRTYYADSVKGRFTITRDNAKNTVYLQMNSLKPEDTAVYYCNADYASYRHRMDYWGQGTQVTVSS | high polyreactivity
QVQLVESGGGIVQAGRSLRLSCAASGRTFHGYAMGWYRQAPGKERELVAAITGTGGRTYYAESVKGRFTISRDKAKNTVYLQMNSLKPEDTAVYYCAARPWIKSGYWGQGTQVTVSS | high polyreactivity
